Results from publication PMC6686035.

Tests used:
[1] = target: CsrA-His6 (Escherichia coli) (UniProt P69913); assay: EMSA; details: EMSA: 0.5 nM RNA, 10 mM MgCl2, 100 mM KCl, 32.5 ng yeast RNA, 20 mM DTT, 7.5% glycerol, 4 U SUPERasin, 37 C 30 min (pH not stated), footprint: 2 nM RNA
[2] = target: CsrA-His6 (Escherichia coli) (UniProt P69913); assay: RNase T1 footprinting; details: EMSA: 0.5 nM RNA, 10 mM MgCl2, 100 mM KCl, 32.5 ng yeast RNA, 20 mM DTT, 7.5% glycerol, 4 U SUPERasin, 37 C 30 min (pH not stated), footprint: 2 nM RNA

CsrA-His6 (Escherichia coli), sequence (P69913 whole entry): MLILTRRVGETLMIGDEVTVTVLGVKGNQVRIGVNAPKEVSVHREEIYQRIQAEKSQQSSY

bfr EMSA transcript
Kd ([1]; 10 mM Mg2+, apparent KD, cooperative equation, single shift): 27 nM

GGGUGGAAGCGAAGGAGUCAAAAAAUGAAAGGUGAUACUAAAGUUAUAAAUUAUCUCAACAAACUGUUGGGAAAUGAGCUUGU [bfr EMSA transcript]
Kd [1]: 27 nM

GGGAUCAUCGUCAGAAUUGACUCCACGAUCACAUUUCGGACCGGCAGAAAGGAAUUAUUCUGCAAACAGUAAUUAUGGUGUUUUGAUUUAUCUUGCACCUCUCCACUUCUGGAUAUAAGGAUAUUAGGUAUGGCAACCGCUGGAAUGCUUCUCAAGGAUCC [ftnB footprint RNA (+1 to +152)]
binding [2]: binds

ftnB EMSA transcript
Kd [1]: 13 nM

GAAGAUCAUCGUCAGAAUUGACUCCACGAUCACAUUUCGGACCGGCAGAAAGGAAUUAUUCUGCAAACAGUAAUUAUGGUGUUUUGAUUUAUCUUGCACCUCUCCACUUCUGGAUAUAAGGAUAUUAGGU [ftnB EMSA transcript]
Kd [1]: 13 nM
